Measured values as given in the DeepSol protein solubility set.

Test: soluble on expression in E. coli; label from the status in PepcDB or PDB records

Sequence | soluble on expression in E. coli
MPKIAKSDRLENVAFEYIKNKITTGEYPTGYRVVEAKLSQELNMSRTPIRRAIINLCHSGFLVHQYNRGAFVQNTEVTITEFFSRMKLVELLVYESTEKLALREDYIVVDDIIEIAEKVIQYEKNREYELMRGAFEDFISTFIGKLNNDYFNRVIQDLWNEINDNATKEVRLIIVSASDRIAEELAHMIEILKSWNYEQLKKCFQHIMNAMILIAF | not soluble
MRALIRYEDVPSKLWTLPKMTDFWGIGKRTEKRLNKLGISSIKELTNADPLLLKQKLGTIGLQHFFHANGIDESNVRLEHHHHHH | not soluble
MKSKFMIHQIFSNYCSKNTRLHTLLYKTFVRPILEYGTEVSSPLKKQDIKAIESVQNSFTRKLYSRQKGKYIRTDDPDYKSAIQRNELFNLSTLEARRKAIDKVFLSKMLVNKVDIDTDQFFKIDKNSKTRTKTKFIWGKCKTKLRRHFFTNRVLSSIKISAMNLILAPHVLCMFNTFTHYSSP | not soluble
MSSKSIHEKRAIAKYAASLIEDGDCIFVDAGTTTYELIDYLEGKDILVVSNGLSHIDTLIQKNIKCYVIGGNIKISTKAITGCDALMCLSKFRFDKCFIGANGVHHTYGLTTPDTEEAILKECAINNSRKAYVLADDSKFGEISTIKFSDINKCVIITNEKPKDNTYDKKTDIKVVDILEHHHHHH | soluble
MNYAEICIIKRDGKREDFSISKIKNAIGKAFHASGIDNEDKLIAEITMRVISNFVSPTISVEEIQDLVEKELMKVRPEVAKKYIIYREWRNTERDRKTQMKHIMDGIVAIDKNDVNLSNANMSSHTPAGQMMTFASEVTKDYTYKYLLPKKYAEAHQLGDIHIHDLDYYPTKTTTCIQYDLDDLFERGFRTKNGSIRTPQSIQSYATLATIIFQTNQNEQHGGQAIPAFDFFMAEGVRKTFRKHLKTLTEFYIEVEGKEPGTEALKKIEEKAYAMTRKDTHQAMEGFIHNLNTMHSRGGNQVVFSSINYGTDTSPEGRMVIEELLKATIEGLGTRGEVPVFPIQIFKVKDGVSYSEEDYKKAMENFEAALEGKMEFQAPNFDLFLKACRTTAKALFPNFMFLDTPYNKNEKWDIKDPKRYRYELATMGCRTRVYENIAGEKSSLGRGNLSFTTMNMPRLAIEARIKAESLEESGKKEAIERKAKEIFIESVHALSELIAEQLYARYQYQRTALARQFPFMMGNDVWKGGGKLSPNDQVGDVLRQGTLGIGFIGGHNAMMALYGEGHAHSQKAWDTLFEAVTEMNKVADEYKQKYQLNFSVLATPAEGLSGRFTRMDRRKYGIIPGVTDNDYYVNSFHVDVKEPITITEKIKREAPFHAITRGGHITYVELDGEAQKNVKAIAKIVKVMHDEGIGYGSINHPVDTCQACGYKGVIYDKCPVCQSENIMRMRRITGYLTGDLSTWNSAKRAEERDRVKHG | not soluble
MSNNNKYFTITKKQYKKMRRNKIELLFNVKVLKKKNGRQKFKILHEVENKPKIPIKIIEDQPESPKPLKPPKPPKPPKGPDNPEEPDSPEEPKETDQPGGPDNPNAGNKKMPTPEEYVTRKEFNEFKDSNNQRLTKIENKVDKLEVKVDKLAEIVQTQGEEIKELKVEQKAQSETLQLILKTLQKMNDRLDRMETRLDKIDSPKLEHHHHHH | soluble
MNRIGFIGAGNMGTAMIRGLAQANLVKREEIIVGGRNLEKLKPLEAEFTGLQITTDTEKLVEQADIIILAVKPYTIPEILTSVKEKLTPDKIIISVAAGVTIQDLEELTSAKTKIVRVMPNTPALVGEAMSSVSPNTNVTSEELKEVTAIFTSFGEAEVVSENLMDAVIGVSGSSPAYVYMFIEALADGAVLSGMPRDKAYKFAAQAVLGAAKTVLETGEHPGKLKDMVTSPGGTTIEAVKSLENDGFRSAVINAVQAAAKKNSSMLEHHHHHH | soluble
MSLSGRYNMNIILGATGQVGSMLVDNLLGKGQPVRAVVRDGLKAQGLKNKGVEVKIADYLDVEALKKAFQGGSSVFLLTPENPESENFINEIQRIMSNYREAVLSSGISKIVGLSSMGAQHKSGTGNLMASYMLEHAFSDLEIEQVFVRPAYYFSNWLGYLELVREYGILPTFFPPELELPMIAPPDVAGFLSDVMTCKTQQERIYEISGPHDYSSSDIAKIFGDVLNKNVTLQQVLPEEWENTLIQAGFSKDGTRNLMLMTKAVIDGKTKNETTNRLRFSTNFKNYLQSVILNMSEGHHHHHH | soluble
MKTQQREQALAIYQQHQGKITNRAIADTIGVSAKTIGIWKKQDKWKEALFSASKNEQKQRPINNDELNERQRLFCLYYVKSFNATQSAIKAGYSPDSAHVTGSRLLKNEKVAAEIRRIKKEMVNEMFIEAMDVLQVYIKIAFADITDYVTFGKKEVQAVGKSGPLFDEDDNPIMKEISFVDVKDSGLVDGTIVTEAKLGKEGIAIKLADKMKALEKLSLYFDLFPDQFKQKIENEKLKLAKQKAEKTDDSQEPIEIMIKRKERKS | not soluble
MDPSAAFRSFPTQERGILLADTYKPLSLYAADVQVRLSGSAAQVILSLEYVNETNKLVRAIAAYPAPSSYQLQCATLQGPAREISARSYVRSRPLRSVEAGSALCAEPLVDTAVSTVATQSVPWDVSPGESVLMKAVYHAPISVTHRTGEIVFTLPASLIPAVQRPPDVQRGYMKFLDARSQLRHLAQQGGSLRVCVDAQLLVPLRGVVTLEKGPEVVPEMGVTGTSVNVHYVGDTHFQMTYHDDLPKTAYMQVPLCVRAPVAETSEPLRLHTVAASLPPTSAPSDHPTAEVAAAMVVSIAPFLANCPINAEIMFVVDVHSAALGARAAESVMSAIRSLNGTASLVNVILCRDAHRGGAVSLLPDESVQSSAVPQESMLAFMKEEGVQTSSSKGPATLSPHLPSLLHDITTGRGITTSIPAGYVRNVIVLSDGGSQPVDADAVAMVCQVTNAGRACRVHAVALAATADHAVLEALAEACGGCFASAAASGSSEAGGSAVDEAVQAAVSAAAVPCLVDIRTKWDVTGGDIAVASSVQAAAAAPSPLRMATDADGGSIACVPHGTQRLLYGLLASANSQLAVRVFGRVGEMRLEYTASSAIQPPPQSDAADTAAAADATDEESGRAPPMLMTAAAAARIAYLTHILHTTSEDEALEVIALSKRYMLPSPYTTLTDGNSGPGGEHKLGGVVHLPSMQAAAHVELAIRARRVELQAAAALRALRPA | soluble
MFTQVKPYLSLPGFSCVLVNAGIVPPDLNQNFRVAFFNEKKSLNFYVLEKLFLNAEVKLLKPQKETEETFDFIISEIPFSHAFEEERKGLSNSIRNSLKEKGVLFIEYDSKPGSTPKEEFIRFIRLFLKKVESEQVKTDLEVILSRPSYFWARNNETRLYFLEKARRFNDDFVKREITNENYRIFSHDEVHELLKDCMLSFAGRANLEMNDPEIVLFPSHLATLARCGKNNLCKEAVIDFVLDTKQRRDIYAKFPEVDQEKAIESVADKFFLIPRQSPKNLRREVLLPGGHKLSLSEPVYDFFFVNSEEPRRLSEHPLYEKSKKTAWKAFYRVLSTGEFILCVNDDLLEDAKDELPESFELTPPNDEILKVSFENLEDTYLVSNATKGPAVHLNTLEVILLWFASEKGKTKAKEEAVKFLKSREEFIKLGTNIVKAREVKEEDINKTAEKLFKGRKAFNLNRLKIIRER | not soluble
MDVRRLKVNELREELQRRGLDTRGLKAELAERLQAALEAEEPDDERELDADDEPGRPGHINEEVETEGGSELEGTAQPPPPGLQPHAEPGGYSGPDGHYAMDNITRQNQFYDTQVIKQENESGYERRPLEMEQQQAYRPEMKTEMKQGAPTSFLPPEASQLKPDRQQFQSRKRPYEENRGRGYFEHREDRRGRSPQPPAEEDEDDFDDTLVAIDTYNCDLHFKVARDRSSGYPLTIEGFAYLWSGARASYGVRRGRVCFEMKINEEISVKHLPSTEPDPHVVRIGWSLDSCSTQLGEEPFSYGYGGTGKKSTNSRFENYGDKFAENDVIGCFADFECGNDVELSFTKNGKWMGIAFRIQKEALGGQALYPHVLVKNCAVEFNFGQRAEPYCSVLPGFTFIQHLPLSERIRGTVGPKSKAECEILMMVGLPAAGKTTWAIKHAASNPSKKYNILGTNAIMDKMRVMGLRRQRNYAGRWDVLIQQATQCLNRLIQIAARKKRNYILDQTNVYGSAQRRKMRPFEGFQRKAIVICPTDEDLKDRTIKRTDEEGKDVPDHAVLEMKANFTLPDVGDFLDEVLFIELQREEADKLVRQYNEEGRKAGPPPEKRFDNRGGGGFRGRGGGGGFQRYENRGPPGGNRGGFQNRGGGSGGGGNYRGGFNRSGGGGYSQNRWGNNNRDNNNSNNRGSYNRAPQQQPPPQQPPPPQPPPQQPPPPPSYSPARNPPGASTYNKNSNIPGSSANTSTPTVSSYSPPQPSYSQPPYNQGGYSQGYTAPPPPPPPPPAYNYGSYGGYNPAPYTPPPPPTAQTYPQPSYNQYQQYAQQWNQYYQNQGQWPPYYGNYDYGSYSGNTQGGTSTQ | soluble
